Among the data in the RNAGym collection of RNA variant scans (doi:10.1093/molbev/msab373) are reverse-splicing fitness values, retold here.

B1: Azoarcus group I ribozyme (parent)
chain: GUGCCUUGCGCCGGGAAACCACGCAAGGGAUGGUGUCAAAUUCGGCGAAACCUAAGCGCCCGCCCGGGCGUAUGGCAACGCCGAGCCAAGCUUCGGCGCCUGCGCCGAUGAAGGUGUAGAGACUAGACGGCACCCACCUAAGGCAAACGCUAUGGUGAAGGCAUAGUCCAGGGAGUGGCGAAAGUCACACAAACCGG

In this data set the parent is B1. Briefly: reverse-splicing fitness (ratio to wild type); higher = more active; in vitro selection; Mg2+ level not given. The gist of the method:
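An in vitro group I ribozyme library with randomized positions was T7-transcribed and gel-purified. In triplicate, 10 pmol RNA in EPPS pH 7.5 was reacted with 50 pmoles of a 30-nt RNA substrate for 1 h at 37 °C across several added MgCl2 levels (1–48 mM), then stopped with EDTA. Products were reverse transcribed from a substrate-complementary primer, PCR-amplified and sequenced (HiSeq 4000). Fitness is a variant's read proportion after selection over that before, normalised to wild type.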
As for GUGCCUUGCGCCGGGAAACCACGCAAGGGAUGGUGUCAAAUUCGGCGAAACCUAAGCGCCCGCCCGGGCGUAUGGCAACGCCGAGCCAAGCUUCGGCGCCUGCGCCGAUGAAGGUGUAGCGACUAGACGGCACCCACCUAAGGCCAACGAUAUGGUGAAGGCAUAGUCCAGGGAGCGGCGAAAGUCACACAAACCGG, the reverse-splicing fitness came out at 0.102.

As to GUGCCUUGCGCCGGGAAACCACGCAAGGGAUGGUGUCAAAUUCGGCGAAACCUAAGCGCCCGCCCGGGCGUAUGGCAACGCCGAGCCAAGCUUCGGCGCCUGCGCCGAUGAAGGUGUAGCGACUAGACGGCACCCACCUAAGGCCAACGAUAUGGUGAAGGCAUAGUCCAGGGAGGGGCGAAAGUCACACAAACCGG, the reverse-splicing fitness is 0.0481. Regarding GUGCCUUGCGCCGGGAAACCACGCAAGGGAUGGUGUCAAAUUCGGCGAAACCUAAGCGCCCGCCCGGGCGUAUGGCAACGCCGAGCCAAGCUUCGGCGCCUGCGCCGAUGAAGGUGUAGCGACUAGACGGCACCCACCUAAGGCCAACGGUAUGGUGAAGGCAUAGUCAAGGGAGAGGCGAAAGUCACACAAACCGG, the reverse-splicing fitness amounted to 0.00776. GUGCCUUGCGCCGGGAAACCACGCAAGGGAUGGUGUCAAAUUCGGCGAAACCUAAGCGCCCGCCCGGGCGUAUGGCAACGCCGAGCCAAGCUUCGGCGCCUGCGCCGAUGAAGGUGUAGCGACUAGACGGCACCCACCUAAGGCCAACGGUAUGGUGAAGGCAUAGUCAAGGGAGGGGCGAAAGUCACACAAACCGG: the reverse-splicing fitness was determined as 0.00424. For the variant GUGCCUUGCGCCGGGAAACCACGCAAGGGAUGGUGUCAAAUUCGGCGAAACCUAAGCGCCCGCCCGGGCGUAUGGCAACGCCGAGCCAAGCUUCGGCGCCUGCGCCGAUGAAGGUGUAGCGACUAGACGGCACCCACCUAAGGCCAACGGUAUGGUGAAGGCAUAGUCAAGGGAGCGGCGAAAGUCACACAAACCGG, the reverse-splicing fitness worked out at 0.00596.

With GUGCCUUGCGCCGGGAAACCACGCAAGGGAUGGUGUCAAAUUCGGCGAAACCUAAGCGCCCGCCCGGGCGUAUGGCAACGCCGAGCCAAGCUUCGGCGCCUGCGCCGAUGAAGGUGUAGCGACUAGACGGCACCCACCUAAGGCCAACGUUAUGGUGAAGGCAUAGUCGAGGGAGAGGCGAAAGUCACACAAACCGG, the reverse-splicing fitness worked out at 0.0156.

On to GUGCCUUGCGCCGGGAAACCACGCAAGGGAUGGUGUCAAAUUCGGCGAAACCUAAGCGCCCGCCCGGGCGUAUGGCAACGCCGAGCCAAGCUUCGGCGCCUGCGCCGAUGAAGGUGUAGCGACUAGACGGCACCCACCUAAGGCCAACGUUAUGGUGAAGGCAUAGUCGAGGGAGCGGCGAAAGUCACACAAACCGG, for which the reverse-splicing fitness came out at 0.00823. With GUGCCUUGCGCCGGGAAACCACGCAAGGGAUGGUGUCAAAUUCGGCGAAACCUAAGCGCCCGCCCGGGCGUAUGGCAACGCCGAGCCAAGCUUCGGCGCCUGCGCCGAUGAAGGUGUAGCGACUAGACGGCACCCACCUAAGGCCAACGUUAUGGUGAAGGCAUAGUCGAGGGAGGGGCGAAAGUCACACAAACCGG, the reverse-splicing fitness was determined as 0.00381. The value for GUGCCUUGCGCCGGGAAACCACGCAAGGGAUGGUGUCAAAUUCGGCGAAACCUAAGCGCCCGCCCGGGCGUAUGGCAACGCCGAGCCAAGCUUCGGCGCCUGCGCCGAUGAAGGUGUAGCGACUAGACGGCACCCACCUAAGGCCAACGUUAUGGUGAAGGCAUAGUCGAGGGAGUGGCGAAAGUCACACAAACCGG was 0.0109. To GUGCCUUGCGCCGGGAAACCACGCAAGGGAUGGUGUCAAAUUCGGCGAAACCUAAGCGCCCGCCCGGGCGUAUGGCAACGCCGAGCCAAGCUUCGGCGCCUGCGCCGAUGAAGGUGUAGCGACUAGACGGCACCCACCUAAGGCCAACGUUAUGGUGAAGGCAUAGUCUAGGGAGUGGCGAAAGUCACACAAACCGG belongs 0.194; to GUGCCUUGCGCCGGGAAACCACGCAAGGGAUGGUGUCAAAUUCGGCGAAACCUAAGCGCCCGCCCGGGCGUAUGGCAACGCCGAGCCAAGCUUCGGCGCCUGCGCCGAUGAAGGUGUAGCGACUAGACGGCACCCACCUAAGGCCAACGUUAUGGUGAAGGCAUAGUCAAGGGAGUGGCGAAAGUCACACAAACCGG, 0.0127.

For GUGCCUUGCGCCGGGAAACCACGCAAGGGAUGGUGUCAAAUUCGGCGAAACCUAAGCGCCCGCCCGGGCGUAUGGCAACGCCGAGCCAAGCUUCGGCGCCUGCGCCGAUGAAGGUGUAGCGACUAGACGGCACCCACCUAAGGCCAACGUUAUGGUGAAGGCAUAGUCAAGGGAGCGGCGAAAGUCACACAAACCGG, the reverse-splicing fitness is 0.008.

For GUGCCUUGCGCCGGGAAACCACGCAAGGGAUGGUGUCAAAUUCGGCGAAACCUAAGCGCCCGCCCGGGCGUAUGGCAACGCCGAGCCAAGCUUCGGCGCCUGCGCCGAUGAAGGUGUAGCGACUAGACGGCACCCACCUAAGGCCAACGUUAUGGUGAAGGCAUAGUCAAGGGAGAGGCGAAAGUCACACAAACCGG, the reverse-splicing fitness was 0.0105. On to GUGCCUUGCGCCGGGAAACCACGCAAGGGAUGGUGUCAAAUUCGGCGAAACCUAAGCGCCCGCCCGGGCGUAUGGCAACGCCGAGCCAAGCUUCGGCGCCUGCGCCGAUGAAGGUGUAGCGACUAGACGGCACCCACCUAAGGCCAACGUUAUGGUGAAGGCAUAGUCAAGGGAGGGGCGAAAGUCACACAAACCGG, for which the reverse-splicing fitness worked out at 0.00465. The value for GUGCCUUGCGCCGGGAAACCACGCAAGGGAUGGUGUCAAAUUCGGCGAAACCUAAGCGCCCGCCCGGGCGUAUGGCAACGCCGAGCCAAGCUUCGGCGCCUGCGCCGAUGAAGGUGUAGCGACUAGACGGCACCCACCUAAGGCCAACGGUAUGGUGAAGGCAUAGUCGAGGGAGUGGCGAAAGUCACACAAACCGG was 0.00786; that for GUGCCUUGCGCCGGGAAACCACGCAAGGGAUGGUGUCAAAUUCGGCGAAACCUAAGCGCCCGCCCGGGCGUAUGGCAACGCCGAGCCAAGCUUCGGCGCCUGCGCCGAUGAAGGUGUAGCGACUAGACGGCACCCACCUAAGGCCAACGGUAUGGUGAAGGCAUAGUCUAGGGAGUGGCGAAAGUCACACAAACCGG was 0.117. Regarding GUGCCUUGCGCCGGGAAACCACGCAAGGGAUGGUGUCAAAUUCGGCGAAACCUAAGCGCCCGCCCGGGCGUAUGGCAACGCCGAGCCAAGCUUCGGCGCCUGCGCCGAUGAAGGUGUAGCGACUAGACGGCACCCACCUAAGGCCAACGGUAUGGUGAAGGCAUAGUCAAGGGAGUGGCGAAAGUCACACAAACCGG, the reverse-splicing fitness is 0.0111. To GUGCCUUGCGCCGGGAAACCACGCAAGGGAUGGUGUCAAAUUCGGCGAAACCUAAGCGCCCGCCCGGGCGUAUGGCAACGCCGAGCCAAGCUUCGGCGCCUGCGCCGAUGAAGGUGUAGCGACUAGACGGCACCCACCUAAGGCCAACGGUAUGGUGAAGGCAUAGUCCAGGGAGCGGCGAAAGUCACACAAACCGG belongs 0.174. Consider GUGCCUUGCGCCGGGAAACCACGCAAGGGAUGGUGUCAAAUUCGGCGAAACCUAAGCGCCCGCCCGGGCGUAUGGCAACGCCGAGCCAAGCUUCGGCGCCUGCGCCGAUGAAGGUGUAGCGACUAGACGGCACCCACCUAAGGCCAACGGUAUGGUGAAGGCAUAGUCCAGGGAGAGGCGAAAGUCACACAAACCGG, for which the reverse-splicing fitness came out at 0.155. GUGCCUUGCGCCGGGAAACCACGCAAGGGAUGGUGUCAAAUUCGGCGAAACCUAAGCGCCCGCCCGGGCGUAUGGCAACGCCGAGCCAAGCUUCGGCGCCUGCGCCGAUGAAGGUGUAGCGACUAGACGGCACCCACCUAAGGCCAACGGUAUGGUGAAGGCAUAGUCCAGGGAGGGGCGAAAGUCACACAAACCGG: the reverse-splicing fitness turned out to be 0.0256. As for GUGCCUUGCGCCGGGAAACCACGCAAGGGAUGGUGUCAAAUUCGGCGAAACCUAAGCGCCCGCCCGGGCGUAUGGCAACGCCGAGCCAAGCUUCGGCGCCUGCGCCGAUGAAGGUGUAGCGACUAGACGGCACCCACCUAAGGCCAACGUUAUGGUGAAGGCAUAGUCUAGGGAGAGGCGAAAGUCACACAAACCGG, the reverse-splicing fitness came out at 0.0792. To GUGCCUUGCGCCGGGAAACCACGCAAGGGAUGGUGUCAAAUUCGGCGAAACCUAAGCGCCCGCCCGGGCGUAUGGCAACGCCGAGCCAAGCUUCGGCGCCUGCGCCGAUGAAGGUGUAGCGACUAGACGGCACCCACCUAAGGCCAACGUUAUGGUGAAGGCAUAGUCUAGGGAGCGGCGAAAGUCACACAAACCGG belongs 0.0863; to GUGCCUUGCGCCGGGAAACCACGCAAGGGAUGGUGUCAAAUUCGGCGAAACCUAAGCGCCCGCCCGGGCGUAUGGCAACGCCGAGCCAAGCUUCGGCGCCUGCGCCGAUGAAGGUGUAGCGACUAGACGGCACCCACCUAAGGCCAACGGUAUGGUGAAGGCAUAGUCGAGGGAGCGGCGAAAGUCACACAAACCGG, 0.00582; to GUGCCUUGCGCCGGGAAACCACGCAAGGGAUGGUGUCAAAUUCGGCGAAACCUAAGCGCCCGCCCGGGCGUAUGGCAACGCCGAGCCAAGCUUCGGCGCCUGCGCCGAUGAAGGUGUAGCGACUAGACGGCACCCACCUAAGGCCAACGGUAUGGUGAAGGCAUAGUCGAGGGAGAGGCGAAAGUCACACAAACCGG, 0.00848.

Take GUGCCUUGCGCCGGGAAACCACGCAAGGGAUGGUGUCAAAUUCGGCGAAACCUAAGCGCCCGCCCGGGCGUAUGGCAACGCCGAGCCAAGCUUCGGCGCCUGCGCCGAUGAAGGUGUAGCGACUAGACGGCACCCACCUAAGGCCAACGGUAUGGUGAAGGCAUAGUCGAGGGAGGGGCGAAAGUCACACAAACCGG: the reverse-splicing fitness worked out at 0.00352. Turning to GUGCCUUGCGCCGGGAAACCACGCAAGGGAUGGUGUCAAAUUCGGCGAAACCUAAGCGCCCGCCCGGGCGUAUGGCAACGCCGAGCCAAGCUUCGGCGCCUGCGCCGAUGAAGGUGUAGCGACUAGACGGCACCCACCUAAGGCCAACGGUAUGGUGAAGGCAUAGUCCAGGGAGUGGCGAAAGUCACACAAACCGG, the reverse-splicing fitness was determined as 0.279.

In the case of GUGCCUUGCGCCGGGAAACCACGCAAGGGAUGGUGUCAAAUUCGGCGAAACCUAAGCGCCCGCCCGGGCGUAUGGCAACGCCGAGCCAAGCUUCGGCGCCUGCGCCGAUGAAGGUGUAGCGACUAGACGGCACCCACCUAAGGCCAACGUUAUGGUGAAGGCAUAGUCCAGGGAGUGGCGAAAGUCACACAAACCGG, the reverse-splicing fitness was determined as 0.46. On to GUGCCUUGCGCCGGGAAACCACGCAAGGGAUGGUGUCAAAUUCGGCGAAACCUAAGCGCCCGCCCGGGCGUAUGGCAACGCCGAGCCAAGCUUCGGCGCCUGCGCCGAUGAAGGUGUAGCGACUAGACGGCACCCACCUAAGGCCAACGGUAUGGUGAAGGCAUAGUCUAGGGAGCGGCGAAAGUCACACAAACCGG, for which the reverse-splicing fitness is 0.0503.

With GUGCCUUGCGCCGGGAAACCACGCAAGGGAUGGUGUCAAAUUCGGCGAAACCUAAGCGCCCGCCCGGGCGUAUGGCAACGCCGAGCCAAGCUUCGGCGCCUGCGCCGAUGAAGGUGUAGCGACUAGACGGCACCCACCUAAGGCCAACGGUAUGGUGAAGGCAUAGUCUAGGGAGGGGCGAAAGUCACACAAACCGG, the reverse-splicing fitness worked out at 0.0043. Take GUGCCUUGCGCCGGGAAACCACGCAAGGGAUGGUGUCAAAUUCGGCGAAACCUAAGCGCCCGCCCGGGCGUAUGGCAACGCCGAGCCAAGCUUCGGCGCCUGCGCCGAUGAAGGUGUAGCGACUAGACGGCACCCACCUAAGGCCAACGGUAUGGUGAAGGCAUAGUCUAGGGAGAGGCGAAAGUCACACAAACCGG: the reverse-splicing fitness was determined as 0.0183.
